Nine molecules from patent publication EP4682166A1 (Guangzhou Enmai Biotechnology Co., Ltd, dated 2026) can be followed below.

Where two headings read alike, the source gives them in different places. Where only a bound is given, the exact number is not on record here.

For experiment [1], the target named is T1, human NMI (N-myc Interacting protein), recombinant protein (human, UniProt Q13287 1-307, limits assumed).
T1 construct: Gene ID: 9111; also called hNMI; antigen
T1 sequence (looked up): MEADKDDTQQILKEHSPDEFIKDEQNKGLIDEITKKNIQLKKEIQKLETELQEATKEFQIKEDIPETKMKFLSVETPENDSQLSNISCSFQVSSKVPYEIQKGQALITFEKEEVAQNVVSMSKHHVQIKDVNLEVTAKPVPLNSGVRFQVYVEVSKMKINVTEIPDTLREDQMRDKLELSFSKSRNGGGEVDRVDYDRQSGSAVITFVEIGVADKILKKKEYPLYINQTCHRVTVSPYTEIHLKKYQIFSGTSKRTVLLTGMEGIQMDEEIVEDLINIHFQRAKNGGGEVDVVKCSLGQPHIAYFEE
Nature of the experiment: ELISA EC50 against parent B-8. In general terms: In an ELISA, binding on a coated surface is turned into a signal by an enzyme label.

In experiment [2] the target is T1, human NMI (N-myc Interacting protein), …. Briefly: ELISA, binding to hNMI.
The target is the same in experiment [3]. Briefly: ELISA EC50 against parent B-8. The source holds these as a separate data set.

B1: B-8 mutant G106K (VH) (antibody, V domains shown)
VH: QSLEESGGDLVKPGASLTLTCTASGFSFSSSYYMCWVRQAPGKGLEWIACIYAGSSGSTYYASWAKGRFTISKTSSTTVTLQMTSLTAADTATYFCAREYSYDDYKDFWGFNLWGPGTLVTVSS
VL: ALVMTQTPSSVSAAVGGTVTINCQASQNIYTNLAWYQQKPGQPPKLLIYGASNLESGVPSRFKGSGSGTEYTLTISDLECDDAATYYCQSSLYSRIADRANAFGGGTEVVVK
Regarding B1, the “Fold decrease in affinity” value in experiment [1] was above 100 fold.

B2: B-8-5 (antibody, V domains shown)
VH: QSLEESGGDLVKPGASLTLTCTASGFSFSSSYYMCWVRQAPGKGLEWIACIYAGSSGSTYYASWAKGRFTISKTSSTTVTLQMTSLTAADTATYFCAREYSYDDYGDFWGANLWGPGTLVTVSS
VL: ALVMTQTPSSVSAAVGGTVTINCQASQNIYTNLAWYQQKPGQPPKLLIYGASNLESGVPSRFKGSGSGTEYTLTISDLECDDAATYYCQSSLYSRIADRANAFGGGTEVVVK
notes: also called B-8 F111A (VH)
Regarding B2, the half-maximal effective concentration (EC50) in experiment [2] is 0.238 nM. Also, in experiment [3], the “Fold decrease in affinity” value is 0.77 fold.

B3: B-8 mutant T31V (VL) (antibody, V domains shown)
VH: QSLEESGGDLVKPGASLTLTCTASGFSFSSSYYMCWVRQAPGKGLEWIACIYAGSSGSTYYASWAKGRFTISKTSSTTVTLQMTSLTAADTATYFCAREYSYDDYGDFWGFNLWGPGTLVTVSS
VL: ALVMTQTPSSVSAAVGGTVTINCQASQNIYVNLAWYQQKPGQPPKLLIYGASNLESGVPSRFKGSGSGTEYTLTISDLECDDAATYYCQSSLYSRIADRANAFGGGTEVVVK
As to B3, the “Fold decrease in affinity” value in experiment [1] is above 100 fold.

B4: B-8-2 (antibody, V domains shown)
VH: QSLEESGGDLVKPGASLTLTCTASGFSFSSSYYMCWVRQAPGKGLEWIACIYAGSSGSTYYASWAKGRFTISKTSSTTVTLQMTSLTAADTATYFCAREYSYDDYGDFWGFNLWGPGTLVTVSS
VL: ALVMTQTPSSVSAAVGGTVTINCQASQNIYTNLAWYQQKPGQPPKLLIYGASNLESGVPSRFKGSGSGTEYTLTISDLECDDAATYYCQSRLYSRIADRANAFGGGTEVVVK
notes: also called B-8 S91R (VL)
As for B4, the concentration giving a half-maximal response (EC50) in experiment [2] was 1.45 nM. The “Fold decrease in affinity” value in experiment [3] came out at 4.68 fold.

B5: B-8-1 (antibody, V domains shown)
VH: QSLEESGGDLVKPGASLTLTCTASGFSFSSSYYMCWVRQAPGKGLEWIACIYAGSSGSTYYASWAKGRFTISKTSSTTVTLQMTSLTAADTATYFCAREYSYDDYGDFWGFNLWGPGTLVTVSS
VL: ALVMTQTPSSVSAAVGGTVTINCQASQNIYTNLAWYQQKPGQPPKLLIYGASNLESGVPSRFKGSGSGTEYTLTISDLECDDAATYYCQSSLESRIADRANAFGGGTEVVVK
notes: also called B-8 Y93E (VL)
On to B5, for which, in experiment [2], the half-maximal effective concentration (EC50) was 0.698 nM. Besides, the “Fold decrease in affinity” value in experiment [3] came to 2.26 fold.

B6: B-8-4 (antibody, V domains shown)
VH: QSLEESGGDLVKPGASLTLTCTASGFSFSSSYYMCWVRQAPGKGLEWIACIYAGSSGSTYEASWAKGRFTISKTSSTTVTLQMTSLTAADTATYFCAREYSYDDYGDFWGFNLWGPGTLVTVSS
VL: ALVMTQTPSSVSAAVGGTVTINCQASQNIYTNLAWYQQKPGQPPKLLIYGASNLESGVPSRFKGSGSGTEYTLTISDLECDDAATYYCQSSLYSRIADRANAFGGGTEVVVK
notes: also called B-8 Y61E (VH)
Regarding B6, the EC50 in experiment [2] was 0.177 nM. Moreover, in experiment [3], the “Fold decrease in affinity” value turned out to be 0.57 fold.

B7: B-8-3 (antibody, V domains shown)
VH: QSLEESGGDLVKPGASLTLTCTASGFSFSSSYEMCWVRQAPGKGLEWIACIYAGSSGSTYYASWAKGRFTISKTSSTTVTLQMTSLTAADTATYFCAREYSYDDYGDFWGFNLWGPGTLVTVSS
VL: ALVMTQTPSSVSAAVGGTVTINCQASQNIYTNLAWYQQKPGQPPKLLIYGASNLESGVPSRFKGSGSGTEYTLTISDLECDDAATYYCQSSLYSRIADRANAFGGGTEVVVK
notes: also called B-8 Y33E (VH)
With B7, the EC50 in experiment [2] was determined as 0.176 nM. Besides, in experiment [3], the “Fold decrease in affinity” value is 0.57 fold.

B8: B-8 mutant S101K (VH) (antibody, V domains shown)
VH: QSLEESGGDLVKPGASLTLTCTASGFSFSSSYYMCWVRQAPGKGLEWIACIYAGSSGSTYYASWAKGRFTISKTSSTTVTLQMTSLTAADTATYFCAREYKYDDYGDFWGFNLWGPGTLVTVSS
VL: ALVMTQTPSSVSAAVGGTVTINCQASQNIYTNLAWYQQKPGQPPKLLIYGASNLESGVPSRFKGSGSGTEYTLTISDLECDDAATYYCQSSLYSRIADRANAFGGGTEVVVK
With B8, the “Fold decrease in affinity” value in experiment [1] was above 500 fold.

B9: B-8 mutant S101Y (VH) (antibody, V domains shown)
VH: QSLEESGGDLVKPGASLTLTCTASGFSFSSSYYMCWVRQAPGKGLEWIACIYAGSSGSTYYASWAKGRFTISKTSSTTVTLQMTSLTAADTATYFCAREYYYDDYGDFWGFNLWGPGTLVTVSS
VL: ALVMTQTPSSVSAAVGGTVTINCQASQNIYTNLAWYQQKPGQPPKLLIYGASNLESGVPSRFKGSGSGTEYTLTISDLECDDAATYYCQSSLYSRIADRANAFGGGTEVVVK
For the molecule B9, the “Fold decrease in affinity” value in experiment [1] was above 500 fold.

As a reminder, the EC50 is the concentration that produces a half-maximal response.
